This data set in a line: soluble on expression in E. coli; label from the status in PepcDB or PDB records.
On to “RTGFSVGAGVEYNFSRHWAIQSGLMITSKGATAEYEGYSPLSSSTDPISYKAKISPIYLDIPILAAFKIDISNHVKFAINIGPYLSVGMGGKYELTNTGGHKNESHNPFKSYSSTAEMKDKDALLKRFDIGVQGGIGFEIWKHYLINASFQHGFMDPIKGGTLYAGDTEKHYPIGGILTVGYRF”, for which the “soluble on expression in E. coli” value is given as “not soluble”. As for “GHMGKPDISAKDLRNIMYDHLPGFGTAFHQLVQVICKLGKDSNSLDIIHAEFQASLAEGDSPQCALIQITKRVPIFQDAAPPVIHIRSRGDIPRACQKSLRPVPPSPKIDRGWVCVFQLQDGKTLGLAI”, the entry is “soluble”; as for “GSSVSSVPTKLEVVAATPTSLLISWDAPMSSSSVYYYRITYGETGGNSPVQEFTVPYSSSTATISGLSPGVDYTITVYAWGEDSAGYMFMYSPISINYRTC”, “soluble”; as for “MIEKKKNRSKLKREAILAAAKKAYQDDGVQNTSMDKLASLAQVSKRTVYNHFSSKEALVMELLSDLWQNSMADIDIQFSENVSIQDQLERLLLAELNVIGAQSYLDLAKVAFGHFFYKPDELQLQVEKMAEQETALSRWLQLMMDTKKLTIEDKHKAGVQLHSLLKGSAFWPQLVGMRAVLSSEEKEQLVTETADMFLSRYLKR”, “not soluble”. Consider “MKPRKQDEKILSDQYSYFEPIISDSCDIKFDGDKRRIGSIFISHEEICFIRKEEDYIFKISLSDVVDYNTVVTIWKNQASLTLNDNRKITFYFVTNSPLTGFISILKTYMQLSRNKETIIPDDNLLINDDDEQTKVEIFDVVGLNYEGRRKELKKLIKKMKTNDAFFFLYSDLKGNELKEELLYEDKVYEIPDYEVIPGVFLQKEPDNPYDENAIKVMISNEYSEFHVGYVPREYASRLVNYIEDTVSCNAYINGGKYKTLDYLEEKIVTKESDYGLRIHVEYKVLEHHHHHH”, for which the “soluble on expression in E. coli” value was “soluble”. “MGHHHHHHSHMANSAGSMANSAGSSWHNDHNFSVSKQPNLVVHNHTVTVPEGETVKGDVTVKNGKLIIKGKIDGDVTVVNGEKYMASAGQVTGQIEEINQLFDWTWYKMKSAGKSVLDAFNPNGEE”: the “soluble on expression in E. coli” value was “not soluble”.

Regarding “MAHHHHHHMPQCGTEKHVSAPPSYTGPFVAVVVDLDGTILDDNHRVSDVTKATLYEVASCGVHIIIATGRPREGVAAIEQELNSYFRCNSRVPGRATSLAEVKGFHLVASNGARIYNTTGELISAESIDNSVVRAIYERVTESNINANSEDSMLVSVHQTGAWWVNNVLPEEWLRRKYGTLPEVRQNLSDFPTDGVGKICLRSFNEGTLRTFQKELDTKYEHYITTVMTSDHCLDIMPKGVSKASALRMVGEILNFEPHRDAIAFGDSLNDRDMLESVAKGCIMKNGKNELKELLPHVEVVGCNEEDGVAHKLREVFLLS”, the “soluble on expression in E. coli” value is “not soluble”. The same measure for “MSLKTVVVSGASVAGTAAAYWLGRHGYSVTMVERHPGLRPGGQAIDVRGPALDVLERMGLLAAAQEHKTRIRGASFVDRDGNELFRDTESTPTGGPVNSPDIELLRDDLVELLYGATQPSVEYLFDDSISTLQDDGDSVRVTFERAAAREFDLVIGADGLHSNVRRLVFGPEEQFVKRLGTHAAIFTVPNFLELDYWQTWHYGDSTMAGVYSARNNTEARAALAFMDTELRIDYRDTEAQFAELQRRMAEDGWVRAQLLHYMRSAPDFYFDEMSQILMDRWSRGRVALVGDAGYCCSPLSGQGTSVALLGAYILAGELKAAGDDYQLGFANYHAEFHGFVERNQWLVSDNIPGGAPIPQEEFERIVHSITIKDYEGHHHHHH”: “not soluble”; for “MTIYQHLLILWSSLFASTFAGTAEEVAKHLELGSQFLARAQFADALTQYHAAIELDPKSYQAIYRRATTYLAMGRGKAAIVDLERVLELKPDFYGARIQRGNILLKQGELEAAEADFNIVLNHDSSNNDVQEKTALIEQHRQLRHQIKSAYAGGDCATVEEYINHIIEIQVWDASLYRMRAKCLEERGELKKAIHDMRIVSKLSTDSTDTMFETSKLLYTVGDLEESLNVIRECLKLNPDHKSCYPFYKKLRKVVKSLESMKKKVENSDWMACLEEGQKTMKFDPTPSVQLNVFRITNRCQREAGHISEAIAECNEILNDDPSDADILCERAEAHILDEDYDSAIEDYQKATEVNPDHREAKEGLEHAKRLKTQAGKRDYYKILGVKRNASKREITKAYRKLAQKWHPDNFSDEEEKKKAEKKFIDIAAAKEVLQDEEKRRQFDQGVDPLDPEAQRQGGGHHGGFGHGFPHGFHHFGGGGGGEHSFKFNWG”: “not soluble”. As to “MATFVPFVTCLDTGFWNEVNKKKLNDWKLDETPKCISSQLSLHQTEGFKCHLSLSYDSLSSLESTTGLSMSGTLLLYNTIESFKMVDKSDLIRSEAEKIWESITTRKWLQNPRLLSQFFIIAFADLKKFKYYYWTCVPALVYPSEIKQEITPLSSLGADHKILFDFYRKNNFPIFLYSKQSSKMLELSELENNTNPDEICVVVADPSPVAYSAGWMVRNVLAAVAHLHPTWKHCHIISLRSADSIGIKYTWTLPSAECSADGAQNAVPKAVGWERNANDKLQPISVDLSKEFDPKILMERSVDLNLSLIKWRLHPDIQLERYSQLKVLILGAGTLGCNIARCLIGWGVRHISFLDNSTVSYNNPVRQSLSEFEDARLGRGKAETAQAAIQRIFPSIQATAHRLTVPMPGHSIDEKDVPELEKDIAKLEQLVKDHDVVFLALDSREARWLPTVLASRHKKIAISVAIGFDTYVIIRHGIGSRSESVSDVSSSDSVPYSQLSCYFCSDVTAPGNSTFDRTLDQQCTVARPGTSMIASGIAVELLSSVLQYPDPLKTPASHDDNTTVLGAAPHQIRGFLGRFQQILPSVKRFDQCVACGDAIAAQFQQNGWKFVRDVMNSPGRLEEVTGLDELQNSVNAIDIDFEDDEDF”, the “soluble on expression in E. coli” value is reported as “soluble”.

Consider “MGSDKIHHHHHHMKFNEFLNNLSNYEPGKDIEVIAKEYGVKEVIKLASNENPFGTPPKAIECLRQNANKAHLYPDDSMIELKSTLAQKYKVQNENIIIGAGSDQVIEFAIHSKLNSKNAFLQAGVTFAMYEIYAKQCGAKCYKTQSITHNLDEFKKLYETHKDEIKLIFLCLPNNPLGECLDASEATEFIKGVNEDCLVVIDAAYNEFASFKDSKKHLEPCELIKEFDNVLYLGTFSKLYGLGGLRIGYGIANANIISAFYKLRAPFNVSNLALKAAVAAMDDDEFTEKTLENNFSQMELYKEFAKKHNIKIIDSYTNFITYFFDEKNSTDLSEKLLKKGIIIRNLKSYGLNAIRITIGTSYENEKFFTEFDKILR”, for which the “soluble on expression in E. coli” value is “not soluble”. As for “MSDDEAAVPGNKPIRLPKKAAKVKNKAPAQLQITAEQLLREAKERELELIPPAPKTKITDPDELKEYQRKKRKEFEDGIRKNRMQLANWIKYGKWEESIGEIQRARSVFERALDVDHRSISIWLQYAEMEMRCKQINHARNVFDRAITIMPRAMQFWLKYSYMEEVIENIPGARQIFERWIEWEPPEQAWQTYINFELRYKEIDRARSVYQRFLHVHGINVQNWIKYAKFEERNGYIGNARAAYEKAMEYFGEEDINETVLVAFALFEERQKEHERARGIFKYGLDNLPSNRTEEIFKHYTQHEKKFGERVGIEDVIISKRKTQYEKMVEENGYNYDAWFDYLRLLENEETDREEVEDVYERAIANIPPHSEKRYWRRYIYLWINYALYEELVAKDFDRARQVYKACIDIIPHKTFTFAKVWIMFAHFEIRQLDLNAARKIMGVAIGKCPKDKLFRAYIDLELQLREFDRCRKLYEKFLESSPESSQTWIKFAELETLLGDTDRSRAVFTIAVQQPALDMPELLWKAYIDFEIACEEHEKARDLYETLLQRTNHIKVWISMAEFEQTIGNFEGARKAFERANQSLENAEKEERLMLLEAWKECETKSGDQEALKRVETMMPRRVKKRRQIQTEDGVDAGWEEYFDYIFPQDQAAKGSFKLLEAAARWKREREEAAARAAQELDAPIPEGDDDEEKEEAGKDAEEKVREGDSDTDLSESSSSSDSESSSSSSSDSSDSSDDDEDK”, the entry is “not soluble”.

For “MMTRESIDKRAGRRGPNLNIVLTCPECKVYPPKIVERFSEGDVVCALCGLVLSDKLVDTRSEWRTFSNDDHNGDDPSRVGEASNPLLDGNNLSTRIGKGETTDMRFTKELNKAQGKNVMDKKDNEVQAAFAKITMLCDAAELPKIVKDCAKEAYKLCHDEKTLKGKSMESIMAASILIGCRRAEVARTFKEIQSLIHVKTKEFGKTLNIMKNILRGKSEDGFLKIDTDNMSGAQNLTYIPRFCSHLGLPMQVTTSAEYTAKKCKEIKEIAGKSPITIAVVSIYLNILLFQIPITAAKVGQTLQVTEGTIKSGYKILYEHRDKLVDPQLIANGVVSLDNLPGVEKK”, the “soluble on expression in E. coli” value is “soluble”. As for “MGLFTTRQLLGYTEQKVKFNPLFLSLFFRRTVTFPTQEVMLDKITGKTPIAAYVSPVVGGKVLRNRGGETRVLRPGYVKPKHEVNYAQVVERLPGEDPARLNDPAYRRLRILTDNLKQEEKAIVQVEEMQAVSAVLNGKYTMQGEQFDTVEVDFGRSAGNNIIQATGKKWSEQDRETFDPTYDLDMYCDQASGLINIAVMDGKVWRLLNGFKLFREKLDTRRGSNSQLETAVKDLGAVVSFKGYYGDLAIVVAKTSYVADNGTEKRYLPEGTLVLGNTAAEGIRCYGAIQDSQALAEGIVAATRYPKHWLTVGDPANEYTMTQSAPLMVLPDPDEFVIVTVG”, the entry is “not soluble”. The same measure for “REINGATRWIPLGPLNFQPTELFKLAVILYLASLFTRREEVLRSMESLGWQSIWRGTANLIMSATNPQARRETLEMYGRFR”: “not soluble”; for “QEQLVESGGRLVTPGTALTLTCKVSGFSLSGFWLNWVRQAPGKGLEWVGAIYRGSGSEWYASWAKGRFTISDTSTTVTLKLTSPTTEDTATYFCAADTTDNGYFTIWGPGTLVTVSSASTKGPSVFPLAPSAKSTSGGTAALGCLVKDYFPEPVTVSWNSGALTSGVHTFPAVLQSSGLYSLSSVVTVPSSSLGTQTYICNVNHKPSNTKVDKKAEPKSCDKTRGHHHHHH”: “soluble”; for “MSKMLYRVELIITNKEGVRDPEGETIQRYVVSRFSDKIIETRAGKYLVFRVNSSSQQEATELVKKLADEMRLYNPIVHKIEIRANRIEDSSN”: “soluble”. The same measure for “GAKSIYEFQVNAADGKPYDLSQHKGHPLLIYNVASRCGYTKGGYETATTLYNKYKGQGFTVLAFPCNQFAGQEPGTALEVKEFACTRFKADFPIMAKIDVNGSKAHPLYEFMKATIPGLFGTKAIKWNFTSFLIDRHGVPVERFSPGASVEDIEKKLLPLLGGARI”: “soluble”; for “MTAESGGRDWTGADLAVVVGDYVAQLEKVLAGKPVDRAAHDRTVRFVTGKADGPISWKQGEISAVLSLIGVPILKDQPPRWAYDNALLDAVEEQLAAKPALLAAAVRPAALFTAPSAVPLIEAAPPKPMPMTQRLIQAIQRFDMGSREADDRFLKGLGIASIVAHEARRLSDRGRPDLAGAIRPARGGDPEGCDVISFGLDEIPRLIVVKTTLAGEVAPFGLSQAEYELSRAQPHAFRIRRVYDLLGEARFYRLKPPFGLEHHHHHH”: “not soluble”; for “GTVQEIMIPAGKAGLVIGKGGETIKQLQERAGVKMILIQDGSQNTNVDKPLRIIGDPYKVQQACEMVMDILRERDQGGFGDRNEYGSRIGGGIDVPVPRHSVGVVIGRSGEMIKKIQNDAGVRIQFKQDDGTGPEKIAHIMGPPDRCEHAARIINDLLQSLRSG”: “soluble”. For “AIAPAKSPSTRKKRARTKDEDEENVDTGNQTTAPTFRDKNLQLVHDFLASQNRPFSLQNILDSLANKGDMKKAALDKALTELVTSEYVTCKEYGKAKLYLIRQKNIALPSAEETAALDSRLETLANELEELSAECQVLEAKISELSAQPRTEEAKERVALLETETATIDERIEKLQVHCAGYDSSRRQYIQQQHERALKALRLRRSRARQIILQMAEGMERKPRELADEIGIESDSDDWLTASRSVVSNARSKAAV”, the “soluble on expression in E. coli” value was “soluble”.

The values above are taken from the DeepSol protein solubility set.
